From publication PMC11910589
Residue numbers refer to the chain shown, from its start. Where two headings read alike, the source gives them in different places.

Key:
Test in all cases: fluorescence polarization
LEDGF/p75 PWWP = LEDGF/p75 PWWP (Homo sapiens, UniProt O75475 4-89)
dP75 PWWP E48A = target: T1, dP75 PWWP E48A (Drosophila melanogaster, UniProt Q9VAA9 9-90, E48A)
T1 sequence: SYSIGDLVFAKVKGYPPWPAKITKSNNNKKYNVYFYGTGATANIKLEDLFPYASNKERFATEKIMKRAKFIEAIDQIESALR

dP75 PWWP K38A = target: T2, dP75 PWWP K38A (Drosophila melanogaster, UniProt Q9VAA9 9-90, K38A)
T2 sequence: T1 sequence with K30A, A40E

dP75 PWWP F43A = target: T3, dP75 PWWP F43A (Drosophila melanogaster, UniProt Q9VAA9 9-90, F43A)
T3 sequence: T1 sequence with F35A, A40E

dP75 PWWP Y23A = target: T4, dP75 PWWP Y23A (Drosophila melanogaster, UniProt Q9VAA9 9-90, Y23A)
T4 sequence: T1 sequence with Y15A, A40E

dP75 PWWP [1] = target: T5, dP75 PWWP (Drosophila melanogaster, UniProt Q9VAA9 9-90)
T5 sequence: T1 sequence with A40E

dP75 PWWP K53A = target: T6, dP75 PWWP K53A (Drosophila melanogaster, UniProt Q9VAA9 9-90, K53A)
T6 sequence: T1 sequence with A40E, K45A

dP75 PWWP [2] = target: T5, dP75 PWWP; remark: listed apart in the source
dP75 PWWP [3] = target: T5, dP75 PWWP; remark: listed apart in the source
dP75 PWWP [4] = target: T5, dP75 PWWP; remark: listed apart in the source

Sequence of LEDGF/p75 PWWP (O75475 4-89): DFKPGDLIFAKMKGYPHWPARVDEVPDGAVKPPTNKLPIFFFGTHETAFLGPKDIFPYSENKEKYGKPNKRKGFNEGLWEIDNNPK

TTTTTTTTTTTT (ssDNA) [FAM-12T (polyT)] was tested, and the binding result (LEDGF/p75 PWWP) was “no binding”, the Kd (dP75 PWWP E48A) was 64.2 ± 2.8 µM and the Kd (dP75 PWWP K38A) was 60.9 ± 0.9 µM. The binding result (dP75 PWWP F43A) was “no binding”, the binding result (dP75 PWWP Y23A) was “no binding” and the Kd (dP75 PWWP [1]) was 24.2 ± 1.1 µM. It also gave a Kd (dP75 PWWP K53A) of 109 ± 2.9 µM.

GGGGGGGGGGGG (ssDNA) [FAM-12G (polyG)]: no binding (dP75 PWWP [2]).

B1: 12 bp poly(G:C) (dsDNA)
DNA 1: GGGGGGGGGGGG
DNA 2: CCCCCCCCCCCC
B1: no binding (dP75 PWWP [1]).

AAAAAAAAAAAA (ssDNA) [FAM-12A (polyA)]: no binding (dP75 PWWP [3]).

Work on CCCCCCCCCCCC (ssDNA) [FAM-12C (polyC)] yielded a Kd (dP75 PWWP [1]) of 151 ± 38.9 µM.

B2: 12 bp poly(A:T) (dsDNA)
DNA 1: TTTTTTTTTTTT
DNA 2: AAAAAAAAAAAA
For B2, the Kd (dP75 PWWP [4]) was 18.2 ± 1.17 µM.

B3: 20 bp random (dsDNA)
DNA 1: CGATCTGCGTCAGCTGTAGC
DNA 2: GCTACAGCTGACGCAGATCG
B3: no binding (dP75 PWWP [1]).
